Laboratory results reported in the RNAGym collection of RNA variant scans (doi:10.1073/pnas.2313332121).

B1: TPR t1 (parent)
chain: GACCAAUCUGCCCUCAGAGCUCGAGAACAUCUUCGGAUGCAGAGGAGGCAGGCUUCGGUGGCGCGAUAGCGCCAACGUCCUCAACCUCCAAUGCAUCCCACCACAUGAUGAUGCCUGAAGAGCCUUGGUUUUUUG

Variants of: B1
Test: polymerase ribozyme fitness, log enrichment relative to wild type (log ratio); higher = more active; in vitro selection for triplet polymerase activity
Summary of the method: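 Mutant libraries for each subunit of a heterodimeric triplet polymerase ribozyme were made by PCR and then transcribed. Each library underwent one round of in vitro selection in triplicate: annealing with a biotinylated primer, the partner subunit and triplets, frozen incubation at −7 °C, gel excision of extended constructs, streptavidin-bead capture and RT-PCR. Input and output libraries were Illumina-sequenced, and only genotypes with ≥10 input reads and ≥1 read per output were kept. Fitness is the logarithm, base 2, of genotype enrichment over wild-type enrichment, computed from inverse-variance-weighted replicate averages.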

Variant	polymerase ribozyme fitness (log ratio)
A5U C56U A91C U112G	-1.59
A5G U38G G48C G69U C79A	-2.33
A5C C49G C53A U54G C98U U106A G128U	-2.13
A5U C13U U78G C82A C104U U109C	-6.49
A5C G45U C73G U81C G120A G122U	-3.02
A5U A6C G63U	-1.11
A5G U133A	-0.954
A5G G45C G69A	-2.95
A5U C70G A119G	-0.737
A5C A118U U133A	-1.14
A5G G36A C53G C73U C80A C82G	-1.5
A5U C80G	-5.2
A5C C15G G61A C114U	-6.53
A5C G63A G69U C101U	-1.54
A5U C97G C115U G127A	-6.94
A5U A43G C102A U116C	-5.9
A5C C62U	-0.355
A5C A24U	-5.29
A5C G23U G71C U112C U126A U131A	-4.82
A5U A29U G71A U78G C123A G128U	-4.18
A5C C73A C102A	-2.49

Variant	polymerase ribozyme fitness (log ratio)
A5C C15G U54G C89U U116G G117A C124G	0.693
A5G A29C	-1.82
A5U A41U G69U	0.0184
A5G C70G G71U G120A U131A	-4.58
A5C U7C G17U C86G	-3.53
A5C C8A A37C G42U C104U	-2.13
A5G C15U C72A C101U C124U	0.428
A5U A18C G57U C72U	-2.48
A5U C49G G51A A74U C82A	-4.76
A5G C11G A16G G63U A74C G77U A95C G117U	-2.32
A5G C53A	0.65
A5U C64U C80A C88U A95U	-4.14
A5G C13U A46U C56A C72G U78A G110A	-3.02
A5G G60A	-0.271
A5U C22A U112A	-2.64
A5C G47A A66G	-3.08
A5G A26U U32C	-2.95
A5U C11G A29G G63A U87G	-1.98
A5C G60C	-0.361
A5C C13U A83G	-1.43
A5C G35A A41U U112A	-5.8

Variant	polymerase ribozyme fitness (log ratio)
A5G A6C C11G C73A G93C	-1.55
A5G C72G U87A A118U	-1.92
A5U G17C A18U C20U A46C U59A A121G G127C	-5.48
A5C G45A A83C U87G G120A U131A	-0.712
A5U C13G C72A C73U U106C	-3.49
A5U A29G A46G C82G G120A	-1.34
A5G U55C C72A C73A G77U A121C	-1.86
A5U G19A A41U C94A C104U	-3.89
A5U C13G C49A G63U U81G A121C	-3.63
A5C G47U G48C G71A C102A	-6.35
A5G C15A G61A	-0.776
A5C U112G U130C	-0.277
A5C U81A	-1.65
A5U C70U C89U G110U	-2.97
A5C G51A C62U U78G	-3.87
A5C G39U C64A A68U U116C G127U	-5.8
A5C G45U C62U	-1.97
A5U G36C	-1.42
A5C C49U C53A	-1.24
A5U G17C G23A C115G U131C	-5.42
A5G C13A G61A	-1.98

Variant	polymerase ribozyme fitness (log ratio)
A5C C79U C104A	-2.03
A5C C115U G120A G122A U134G	-4.36
A5U A6G C86A C102A	-3.72
A5U C115U	-1.6
A5C G17U G120A	-3.4
A5U C13G A75C C76A	-1.8
A5G C8G G47A G69U C80G	-3.96
A5U A41G U55A C70G	-3.9
A5C C98U U112A G128C	-4.48
A5C C53G U92G G117C U129C U133C	-5.53
A5G C12A U59C	0.0118
A5G G51A A84C C89U U106A U112C	-2.68
A5G G52U U92C C114G	-5.18
A5U C13U A37U G44C U78G C98U	-4.45
A5U C12A A90G	-0.323
A5G U32G A50C C101U G113C C114U U131C	-5.64
A5C C72U C82G U87A C123G	-3.15
A5U C73U G122A U129A	-2.07
A5G A6U A46G C123A	0.996
A5C U7C A74C A90U	-1.47
A5C C13U A84C U131A	-2.02
